Reference: PMC2714985 (Journal of immunology (Baltimore, Md. : 1950), 2009)

Target: rat collagen type I (rat, UniProt P02454 152-1207; P02466 86-1125)
Assay: SPR

Chain of rat collagen type I (P02454 152-1207, chain 1 of 2): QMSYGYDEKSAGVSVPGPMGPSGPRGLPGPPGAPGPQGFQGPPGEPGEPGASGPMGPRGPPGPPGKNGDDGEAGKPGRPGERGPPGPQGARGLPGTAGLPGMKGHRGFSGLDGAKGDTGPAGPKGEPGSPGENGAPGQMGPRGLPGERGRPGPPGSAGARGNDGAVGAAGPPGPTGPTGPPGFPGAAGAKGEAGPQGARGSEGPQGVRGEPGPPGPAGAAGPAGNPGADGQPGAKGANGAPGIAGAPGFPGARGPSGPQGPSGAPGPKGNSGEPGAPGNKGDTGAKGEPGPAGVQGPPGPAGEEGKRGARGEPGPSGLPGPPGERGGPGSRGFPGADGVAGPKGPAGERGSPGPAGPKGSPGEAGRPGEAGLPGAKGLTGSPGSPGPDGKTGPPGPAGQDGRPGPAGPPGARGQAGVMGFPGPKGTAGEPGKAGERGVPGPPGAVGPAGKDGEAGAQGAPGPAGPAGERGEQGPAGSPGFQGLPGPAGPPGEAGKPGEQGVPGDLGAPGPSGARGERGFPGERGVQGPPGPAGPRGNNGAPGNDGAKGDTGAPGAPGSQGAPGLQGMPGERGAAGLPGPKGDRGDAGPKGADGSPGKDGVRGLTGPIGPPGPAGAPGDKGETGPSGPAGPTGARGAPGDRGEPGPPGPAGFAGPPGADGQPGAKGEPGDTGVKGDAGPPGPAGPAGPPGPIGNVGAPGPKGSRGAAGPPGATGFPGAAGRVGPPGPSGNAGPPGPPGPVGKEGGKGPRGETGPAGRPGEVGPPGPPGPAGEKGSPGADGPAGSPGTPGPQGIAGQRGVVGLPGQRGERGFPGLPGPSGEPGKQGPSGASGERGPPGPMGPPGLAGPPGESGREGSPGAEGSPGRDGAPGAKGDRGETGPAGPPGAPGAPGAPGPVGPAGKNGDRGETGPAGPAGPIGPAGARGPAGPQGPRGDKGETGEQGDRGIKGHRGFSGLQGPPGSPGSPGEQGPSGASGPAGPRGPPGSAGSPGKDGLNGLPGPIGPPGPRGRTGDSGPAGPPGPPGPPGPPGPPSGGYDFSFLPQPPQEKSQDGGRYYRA
Chain of rat collagen type I (P02466 86-1125, chain 2 of 2): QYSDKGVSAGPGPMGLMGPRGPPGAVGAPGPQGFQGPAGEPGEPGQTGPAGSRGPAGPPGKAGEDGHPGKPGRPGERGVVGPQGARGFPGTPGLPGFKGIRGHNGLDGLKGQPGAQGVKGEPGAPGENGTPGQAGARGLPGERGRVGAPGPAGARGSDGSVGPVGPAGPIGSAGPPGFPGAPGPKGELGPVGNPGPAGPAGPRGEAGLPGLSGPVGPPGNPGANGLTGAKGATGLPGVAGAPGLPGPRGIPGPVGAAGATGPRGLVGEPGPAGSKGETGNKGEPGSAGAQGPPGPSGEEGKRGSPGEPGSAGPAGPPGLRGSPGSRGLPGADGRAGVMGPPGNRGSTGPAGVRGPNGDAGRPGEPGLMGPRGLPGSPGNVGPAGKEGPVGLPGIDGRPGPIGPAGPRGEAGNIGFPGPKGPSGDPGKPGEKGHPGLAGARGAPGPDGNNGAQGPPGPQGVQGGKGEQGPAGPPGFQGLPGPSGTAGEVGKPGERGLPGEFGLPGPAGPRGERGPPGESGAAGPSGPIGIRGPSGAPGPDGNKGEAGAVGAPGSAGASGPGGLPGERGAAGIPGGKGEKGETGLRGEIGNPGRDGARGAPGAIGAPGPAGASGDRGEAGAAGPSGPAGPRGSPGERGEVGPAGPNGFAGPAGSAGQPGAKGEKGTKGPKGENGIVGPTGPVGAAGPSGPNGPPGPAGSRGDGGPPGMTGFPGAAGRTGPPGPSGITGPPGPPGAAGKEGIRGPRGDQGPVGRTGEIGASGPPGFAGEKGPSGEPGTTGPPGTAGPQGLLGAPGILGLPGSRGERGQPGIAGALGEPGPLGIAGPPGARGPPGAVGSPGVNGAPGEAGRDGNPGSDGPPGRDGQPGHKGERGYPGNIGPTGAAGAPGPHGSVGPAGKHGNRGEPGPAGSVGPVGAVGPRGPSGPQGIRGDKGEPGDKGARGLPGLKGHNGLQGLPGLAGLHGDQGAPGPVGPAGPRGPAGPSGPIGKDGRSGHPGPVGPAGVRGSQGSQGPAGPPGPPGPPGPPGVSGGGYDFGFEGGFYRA

Kd: 145 nM
koff: 0.0456 s⁻¹
B1: LAIR-1/Fc wt fusion protein (Fc fusion, human, UniProt Q6GTX8 22-165, looked up)
chain: QEEDLPRPSISAEPGTVIPLGSHVTFVCRGPVGVQTFRLERDSRSTYNDTEDVSQASPSESEARFRIDSVREGNAGLYRCIYYKPPKWSEQSDYLELLVKESSGGPDSPDTEPGSSAGPTQRPSDNSHNEHAPASQGLKAEHLY
